This is an account of results in patent publication US10865391B2, “Glutamate dehydrogenase mutants and their application in preparation of L-phosphinothricin” (ZHEJIANG UNIVERSITY, priority 2018, dated 2020).

This data set in a line: Standard enzyme activity measurement toward PPO, crude enzyme (per volume fermentation broth). The following applies: toward PPO; for Fold change: enzyme activity of mutant versus wild type. It is filed as biochemical. Here is the method: The preserved recombinant E. coli is streaked onto the plate for activation. Single colonies are picked and inoculated into 5 mL LB liquid medium containing 50 μg/mL kanamycin and cultured at 37° C. for 12 h. The culture is transferred to 50 mL fresh LB liquid medium containing 50 μg/mL kanamycin at a 2% inoculum, and then incubated at 37° C. until the OD600 reaches 0.6; after that, add IPTG to a final concentration of 0.5 mM, and then proceed with induction culture under the temperature of 18° C. for 16 h.
After the cultivation, the culture is centrifuged at 10000 rpm for 10 min; discard supernatant, and collect cells. The harvested cells are washed for 2 times using pH 7.5 50 mM phosphate buffer. After that, the cells are re-suspend into the pH 7.5 phosphate buffer and disrupted ultrasonically (400W for 30 times, Ultrasonic time is 3 s, and the interval is 7 s). The cell disrupted solution is centrifuged at 12000 g for 5 min at 4° C. to remove the precipitate, and the supernatant obtained is the crude enzyme containing recombinant glutamate dehydrogenase
The standard enzyme activity measurement system: Appropriate amount of enzyme, 100 mM substrate, 10 mM coenzyme (NADH or NADPH), 500 mM NH4^+ ((NH4)2SO4); total system volume is up to 400 μL; reaction medium is pH 7.5 phosphate buffer. 35° C. reaction for 10 min; after that, add 40 uL 5 M NaOH to terminate reaction.
Definition of enzyme activity unit: The quantity of enzyme as required by generation of 1 μmol L-phosphinothricin per minute under standard reaction conditions.
Proceed with induction culture of constructed mutants, and prepare crude enzyme solution.

Where [1] appears, read: crude enzyme, standard system, N.D. = no detectable activity.

B1: BsGluDH-A154G: BsGluDH mutant A154G, SEQ ID NO. 11 (protein)
chain: MSAKQVSKDEEKEALNLFLSTQTIIKEALRKLGYPGDMYELMKEPQRMLTVRIPVKMDNGSVKVFTGYRSQHNDAVGPTKGGVRFHPEVNEEEVKALSIWMTLKCGIANLPYGGGKGGIICDPRTMSFGELERLSRGYVRAISQIVGPTKDIPGPDVYTNSQIMAWMMDEYSRLREFDSPGFITGKPLVLGGSQGRETATAQGVTICIEEAVKKKGIKLQNARIIIQGFGNAGSFLAKFMHDAGAKVIGISDANGGLYNPDGLDIPYLLDKRDSFGMVTNLFTDVITNEELLEKDCDILVPAAISNQITAKNAHNIQASIVVEAANGPTTIDATKILNERGVLLVPDILASAGGVTVSYFEWVQNNQGYYWSEEEVAEKLRSVMVSSFETIYQTAATHKVDMRLAAYMTGIRKSAEASRFRGWV
modifications: Bacillus subtilis glutamate dehydrogenase mutant
B1: the “Enzyme activity of mutants (U/mL)” value under setting [1] is on record as 0.50 U/mL.

B2: PeGluDH-V375A: PeGluDH mutant V375A, SEQ ID NO. 6 (protein)
chain: MIESVDHFLARLQQRDPAQPEFHQAVEEVLRSLWPFLEQNPHYLEAGILERMVEPERAVLFRVSWVDDQGKVQVNRGYRIQMSSAIGPYKGGLRFHPSVNLGVLKFLAFEQVFKNSLTSLPMGGGKGGSDFDPKGKSDAEVMRFCQAFMSELYRHIGADLDVPAGDIGVGAREIGFLFGQYKRLANQFTSVLTGKGMTYGGSLIRPEATGYGCVYFAEEMLKRQEQRIDGRRVAISGSGNVAQYAARKVMDLGGKVISLSDSEGTLFCEAGLTDEQWDALMELKNVKRGRISELAGRFGLEFRKGQTPWSLACDIALPCATQNELNADDARTLLRNGCICVAEGANMPTTLDAVDIFIEAGILYAPGKASNAGGAAVSGLEMSQNAMRLLWTAGEVDSKLHHIMQSIHHVCVHYGEEADGRINYVKGANIAGFVKVADAMLAQGVV
modifications: Pseudomonas entomophila glutamate dehydrogenase mutant
As to B2, the Fold change was determined as 107. Further, the “Enzyme activity of mutants (U/mL)” value under setting [1] worked out at 11.06 U/mL.

B3: GsGluDH-A153G: GsGluDH mutant A153G, SEQ ID NO. 9 (protein)
chain: MAADKHTEEKGQQDDVLASTQIVIHRALEKLGYPEEVYELLKEPIRVLTVRIPVRMDDGSVKIFTGYRAQHNDAVGPTKGGVRFHPDVTEREVKALSIWMSLKCGIVDLPYGGGKGGIVCDPRTMSFRELERLSRGYVRAISQIVGPTKDIPGPDVFTNSQIMAWMMDEYSRIREFDSPGFITGKPLVLGGSHGRETATAKGVTICIREAAKKRGLSLEGARVVVQGFGNAGSYLAKFLHDAGAKVVGISDVYGALYDPNGLDIDYLLERRDSFGTVTKLFKNTISNKELLELDCDILVPAAIENQITAENAPRIKASIVVEAANGPTTLEATEILTQRGILLVPDVLASAGGVTVSYFEWVQNNQGYYWTEEEVEQRLEKVMVKAFNNVYEMAQTRRVDMRLAAYMVGVRKMAEACRFRGWV
modifications: Geobacillus stearothermophilus glutamate dehydrogenase mutant
In the case of B3, the “Enzyme activity of mutants (U/mL)” value under setting [1] is 0.04 U/mL.

B4: LsGluDH-A144G: LsGluDH mutant A144G, SEQ ID NO. 15 (protein)
chain: MSENLNLFTSTQDVIQDALNKLGYDEAMYELLKEPLRMLQVRIPVKMDDGTTKVFTGYRAQHNDAVGPTKGGVRFHPQVSEEEVKALSMWMTLKCGIVDLPYGGGKGGVICDPRQMSMGEIERLSRGYVRAVSQIVGPTKDIPGPDVFTNAQIMAWMMDEYSRMDEFNSPGFITGKPLVLGGSQGRDRATAQGVTIVIEEAAKKRGIDIKGARVVIQGFGNAGSFLAKFMHDLGAKVIGISDAYGALHDPEGLDIDYLLDRRDSFGTVTTLFENTISNKELLELDCDILVPAAIENQITADNAHNIKADIVVEAANGPTTAEATKILTERGILLVPDVLASAGGVTVSYFEWVQNNQGYYWTEEEVEERLYKKMVEAFDNVYTTATTRNINMRLAAYMVGVRRTAEASRFRGWV
modifications: Lysinibacillus sphaericus glutamate dehydrogenase mutant
On to B4, for which the “Enzyme activity of mutants (U/mL)” value under setting [1] is on record as 1.69 U/mL.

B5: CgGluDH: wild type glutamate dehydrogenase from Corynebacterium glutamicum, NP_601279.1, NADPH-specific (protein, UniProt P31026 1-447, looked up)
NADP-specific glutamate …: MTVDEQVSNYYDMLLKRNAGEPEFHQAVAEVLESLKIVLEKDPHYADYGLIQRLCEPERQLIFRVPWVDDQGQVHVNRGFRVQFNSALGPYKGGLRFHPSVNLGIVKFLGFEQIFKNSLTGLPIGGGKGGSDFDPKGKSDLEIMRFCQSFMTELHRHIGEYRDVPAGDIGVGGREIGYLFGHYRRMANQHESGVLTGKGLTWGGSLVRTEATGYGCVYFVSEMIKAKGESISGQKIIVSGSGNVATYAIEKAQELGATVIGFSDSSGWVHTPNGVDVAKLREIKEVRRARVSVYADEVEGATYHTDGSIWDLKCDIALPCATQNELNGENAKTLADNGCRFVAEGANMPSTPEAVEVFRERDIRFGPGKAANAGGVATSALEMQQNASRDSWSFEYTDERLQVIMKNIFKTCAETAAEYGHENDYVVGANIAGFKKVADAMLAQGVI
Regarding B5, the “Enzyme activity of wild type (U/mL)” value under setting [1] is recorded as 0.011 U/mL.

B6: CgGluDH-V376A: CgGluDH mutant V376A, SEQ ID NO. 4 (protein)
chain: MTVDEQVSNYYDMLLKRNAGEPEFHQAVAEVLESLKIVLEKDPHYADYGLIQRLCEPERQLIFRVPWVDDQGQVHVNRGFRVQFNSALGPYKGGLRFHPSVNLGIVKFLGFEQIFKNSLTGLPIGGGKGGSDFDPKGKSDLEIMRFCQSFMTELHRHIGEYRDVPAGDIGVGGREIGYLFGHYRRMANQHESGVLTGKGLTWGGSLVRTEATGYGCVYFVSEMIKAKGESISGQKIIVSGSGNVATYAIEKAQELGATVIGFSDSSGWVHTPNGVDVAKLREIKEVRRARVSVYADEVEGATYHTDGSIWDLKCDIALPCATQNELNGENAKTLADNGCRFVAEGANMPSTPEAVEVFRERDIRFGPGKAANAGGAATSALEMQQNASRDSWSFEYTDERLQVIMKNIFKTCAETAAEYGHENDYVVGANIAGFKKVADAMLAQGVI
modifications: Corynebacterium glutamicum glutamate dehydrogenase mutant
Molecule B6 registered a Fold change of 225. The “Enzyme activity of mutants (U/mL)” value under setting [1] came to 2.48 U/mL.

B7: CgGluDH-A166G: CgGluDH mutant A166G, SEQ ID NO. 3 (protein)
chain: MTVDEQVSNYYDMLLKRNAGEPEFHQAVAEVLESLKIVLEKDPHYADYGLIQRLCEPERQLIFRVPWVDDQGQVHVNRGFRVQFNSALGPYKGGLRFHPSVNLGIVKFLGFEQIFKNSLTGLPIGGGKGGSDFDPKGKSDLEIMRFCQSFMTELHRHIGEYRDVPGGDIGVGGREIGYLFGHYRRMANQHESGVLTGKGLTWGGSLVRTEATGYGCVYFVSEMIKAKGESISGQKIIVSGSGNVATYAIEKAQELGATVIGFSDSSGWVHTPNGVDVAKLREIKEVRRARVSVYADEVEGATYHTDGSIWDLKCDIALPCATQNELNGENAKTLADNGCRFVAEGANMPSTPEAVEVFRERDIRFGPGKAANAGGVATSALEMQQNASRDSWSFEYTDERLQVIMKNIFKTCAETAAEYGHENDYVVGANIAGFKKVADAMLAQGVI
modifications: Corynebacterium glutamicum glutamate dehydrogenase mutant
In the case of B7, the Fold change is reported as 31. In addition, the “Enzyme activity of mutants (U/mL)” value under setting [1] is 0.34 U/mL.

B8: BmGluDH-A156G: BmGluDH mutant A156G, SEQ ID NO. 13 (protein)
chain: MVADKMQDSKNSQEEKHDVLKSTQTVIHKALEKLGYPDEVYELLKEPLRMMTVKIPVRMDDGSVKIFTGHRAQHNDAVGPTKGGIRFHPNVTEKEVKALSIWMSLKCGIVDLPYGGGKGGIVCDPRNMSFGELERLSRGYVRAISQIVGPTKDIPGPDVFTNSQIMAWMMDEYSRIDEFNSPGFITGKPLVLGGSHGRETATAKGVTICIREAAKKRGIELQGARVVVQGFGNAGSFLAKFMHDAGAKIVGISDAYGALHDPNGLDIDYLLDRRDSFGTVTKLFNNTISNKELLELDCDILVPAAIENQITEENAHNIQASIVVEAANGPTTLEATRILSERGILLVPDVLASAGGVTVSYFEWVQNNQGYYWTEEEVEEKLEKVMVKSFNNIYETSTTRKVDMRLAAYMIGVRKMAEGSRFRGWI
modifications: Bacillus megaterium glutamate dehydrogenase mutant
As for B8, the “Enzyme activity of mutants (U/mL)” value under setting [1] is 0.34 U/mL.

B9: LsGluDHp-V386A: LsGluDHp mutant V386A, SEQ ID NO. 8 (protein)
chain: MTITTVSNEQLAKEYVDGVFEQLKQQNCHQAEFLQAAEEIFISLVPVFVQHPEYIKANILSRIVEPDRIISFRVAWQDDHNQVQVNRGYRVQYSNVMGPYKGGLRFHPSVNESIIKFLGFEQIFKNALTGQPIGGGKGGSNFDPKGKSDSEIMRFCQAFMTELYRHIGPDVDVPAGDIGVGAREVGYLWGQYKRLTKASESGVLTGKTPGYGGSLARKEATGYGTVYFVNEMLKDVNDSFEGKTVVVSGSGNVSTYAIEKAQQYGAKVVACSDSSGYIYDPEGLDLDVIKEIKEVKGDRISTYVSYRPNATFTNGCTGIWTIPCDIALPCATQNEINGESARTLISNGVKAIGEGANMPSDLEAINEFLNAGVLFGPAKAANAGGAAVSALEMAQDSSRVFWSFEEVDAKLHQIMKDIYSDSKAAAEKYGFPGNLVMGANIAGFIKVADGMLTEGIY
modifications: Lysinibacillus sphaericus glutamate dehydrogenase mutant
With B9, the Fold change came out at 588. The “Enzyme activity of mutants (U/mL)” value under setting [1] is listed as 12.34 U/mL.
